The text below walks through data of patent publication US20160002331A1 (Pfizer, published 2016).

“And” between values parts separate entries of the source, which are not always exact repeats. Identical values can stand only once.

One experiment addresses T1, Human Notch2 NRR-Fc (human, UniProt Q04721 1425-1677, limits assumed).
T1 construct: domain: NRR region; Made in CHO-PACE cells; also called human Notch2 NRR-Fc fusion protein; not shown: human IgG1 Fc fragment
T1 sequence (looked up): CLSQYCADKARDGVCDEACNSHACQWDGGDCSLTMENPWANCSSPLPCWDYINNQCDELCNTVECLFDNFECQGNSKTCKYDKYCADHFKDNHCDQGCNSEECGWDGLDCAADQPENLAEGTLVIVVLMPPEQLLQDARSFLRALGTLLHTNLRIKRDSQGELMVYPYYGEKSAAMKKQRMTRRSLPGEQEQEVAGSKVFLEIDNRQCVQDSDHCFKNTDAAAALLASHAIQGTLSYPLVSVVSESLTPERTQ
Put plainly: binding to recombinant NRR-Fc fusion protein (N/B represents non-binding).

The next experiment concerns the target T2, Human Notch3 NRR-Fc (human, UniProt Q9UM47 1378-1643, limits assumed).
T2 construct: domain: NRR region; also called human Notch3 NRR-Fc fusion protein; not shown: human IgG1 Fc fragment
T2 sequence (looked up): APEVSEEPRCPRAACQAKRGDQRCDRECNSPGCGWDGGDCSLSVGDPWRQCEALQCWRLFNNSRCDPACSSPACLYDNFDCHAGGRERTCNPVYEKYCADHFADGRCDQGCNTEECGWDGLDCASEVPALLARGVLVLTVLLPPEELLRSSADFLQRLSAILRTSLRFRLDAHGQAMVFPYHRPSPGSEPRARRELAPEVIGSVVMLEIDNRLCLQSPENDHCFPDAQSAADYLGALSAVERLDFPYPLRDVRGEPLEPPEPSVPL
The description is as above.

In another experiment the target is T3, Mouse Notch3 NRR-Fc (mouse, UniProt Q61982 1379-1643, limits assumed).
T3 construct: domain: NRR region; also called mouse Notch3 NRR-Fc fusion protein; not shown: Fc part
T3 sequence (looked up): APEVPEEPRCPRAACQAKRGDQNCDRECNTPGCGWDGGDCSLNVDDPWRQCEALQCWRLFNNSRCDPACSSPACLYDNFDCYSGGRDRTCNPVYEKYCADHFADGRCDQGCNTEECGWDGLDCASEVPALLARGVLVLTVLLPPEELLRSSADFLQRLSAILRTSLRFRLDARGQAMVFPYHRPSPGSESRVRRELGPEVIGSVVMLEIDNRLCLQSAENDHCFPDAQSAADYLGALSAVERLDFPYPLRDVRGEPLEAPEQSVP
The experiment is described as above.

For experiment [1], the target named is T4, full-length human Notch1 expressed on the cell surface (human, UniProt P46531 19-2555). The experiment can be described thus: cell-based or functional assay.
T4 sequence (P46531 19-2555): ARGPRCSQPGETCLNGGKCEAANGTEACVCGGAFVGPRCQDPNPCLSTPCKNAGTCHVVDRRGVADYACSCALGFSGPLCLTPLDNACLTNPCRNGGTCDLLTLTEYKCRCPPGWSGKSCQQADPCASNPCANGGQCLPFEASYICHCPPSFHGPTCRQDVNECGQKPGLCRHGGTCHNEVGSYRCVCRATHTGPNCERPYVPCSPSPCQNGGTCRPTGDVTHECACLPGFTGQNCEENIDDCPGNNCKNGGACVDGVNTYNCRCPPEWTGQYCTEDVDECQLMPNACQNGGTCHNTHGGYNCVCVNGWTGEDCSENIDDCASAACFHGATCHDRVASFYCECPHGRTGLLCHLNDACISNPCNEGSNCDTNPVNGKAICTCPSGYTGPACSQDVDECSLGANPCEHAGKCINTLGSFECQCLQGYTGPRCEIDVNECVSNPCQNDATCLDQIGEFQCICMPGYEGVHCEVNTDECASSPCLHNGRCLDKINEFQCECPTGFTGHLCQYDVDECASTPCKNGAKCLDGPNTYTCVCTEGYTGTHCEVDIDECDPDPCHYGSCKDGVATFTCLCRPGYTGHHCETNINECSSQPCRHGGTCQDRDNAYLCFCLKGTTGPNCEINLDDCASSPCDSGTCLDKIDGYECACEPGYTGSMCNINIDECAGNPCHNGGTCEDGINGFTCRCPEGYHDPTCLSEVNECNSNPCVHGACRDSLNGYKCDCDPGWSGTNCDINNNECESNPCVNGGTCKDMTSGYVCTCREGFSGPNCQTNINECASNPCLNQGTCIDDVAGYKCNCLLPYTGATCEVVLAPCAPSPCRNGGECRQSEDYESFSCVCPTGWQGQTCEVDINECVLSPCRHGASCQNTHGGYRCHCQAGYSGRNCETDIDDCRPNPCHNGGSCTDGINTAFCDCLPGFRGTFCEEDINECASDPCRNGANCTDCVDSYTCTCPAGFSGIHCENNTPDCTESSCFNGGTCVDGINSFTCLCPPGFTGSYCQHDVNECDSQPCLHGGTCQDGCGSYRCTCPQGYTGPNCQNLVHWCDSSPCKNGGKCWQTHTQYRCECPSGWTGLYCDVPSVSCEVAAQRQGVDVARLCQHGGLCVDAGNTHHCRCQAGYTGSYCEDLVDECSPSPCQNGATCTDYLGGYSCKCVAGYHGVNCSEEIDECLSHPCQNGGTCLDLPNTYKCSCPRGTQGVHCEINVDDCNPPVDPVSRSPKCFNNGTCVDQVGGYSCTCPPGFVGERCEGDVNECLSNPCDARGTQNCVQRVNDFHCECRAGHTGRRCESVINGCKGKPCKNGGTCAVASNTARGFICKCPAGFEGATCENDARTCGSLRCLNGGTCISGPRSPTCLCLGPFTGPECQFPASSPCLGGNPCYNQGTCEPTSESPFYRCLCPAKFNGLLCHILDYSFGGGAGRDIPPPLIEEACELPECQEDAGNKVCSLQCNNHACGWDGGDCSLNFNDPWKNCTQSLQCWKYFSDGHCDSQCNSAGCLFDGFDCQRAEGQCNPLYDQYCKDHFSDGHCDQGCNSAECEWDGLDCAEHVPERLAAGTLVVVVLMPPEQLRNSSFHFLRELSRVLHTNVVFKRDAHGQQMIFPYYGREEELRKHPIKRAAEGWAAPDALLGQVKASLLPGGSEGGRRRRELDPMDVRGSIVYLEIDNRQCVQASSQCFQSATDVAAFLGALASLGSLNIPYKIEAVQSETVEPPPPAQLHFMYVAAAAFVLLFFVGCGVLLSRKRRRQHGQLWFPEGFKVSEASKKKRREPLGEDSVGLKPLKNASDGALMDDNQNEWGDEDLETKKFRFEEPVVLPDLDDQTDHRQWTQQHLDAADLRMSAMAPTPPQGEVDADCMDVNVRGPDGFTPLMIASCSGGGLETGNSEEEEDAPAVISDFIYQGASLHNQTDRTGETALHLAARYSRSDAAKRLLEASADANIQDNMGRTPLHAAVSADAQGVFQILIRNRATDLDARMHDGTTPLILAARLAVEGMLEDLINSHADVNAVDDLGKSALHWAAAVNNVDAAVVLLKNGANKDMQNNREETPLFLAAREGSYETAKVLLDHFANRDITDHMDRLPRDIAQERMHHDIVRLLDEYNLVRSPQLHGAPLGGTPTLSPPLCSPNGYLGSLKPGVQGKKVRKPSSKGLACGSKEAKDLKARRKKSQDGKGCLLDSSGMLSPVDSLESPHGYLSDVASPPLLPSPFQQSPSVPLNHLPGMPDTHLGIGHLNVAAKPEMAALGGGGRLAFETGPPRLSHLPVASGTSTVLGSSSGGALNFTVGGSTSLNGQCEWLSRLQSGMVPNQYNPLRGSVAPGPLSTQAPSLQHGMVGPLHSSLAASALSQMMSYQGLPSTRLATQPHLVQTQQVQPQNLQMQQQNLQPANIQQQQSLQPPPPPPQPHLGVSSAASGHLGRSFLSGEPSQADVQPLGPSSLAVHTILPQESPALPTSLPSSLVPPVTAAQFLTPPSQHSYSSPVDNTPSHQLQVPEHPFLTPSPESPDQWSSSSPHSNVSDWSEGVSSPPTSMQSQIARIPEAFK
Experiment [2] addresses T5, full-length mouse Notch1 expressed on the cell surface of U-2 OS cells (mouse, UniProt Q01705 19-2531). Put plainly: cell-based or functional assay.
For experiment [3], the target named is T4, full-length human Notch1 expressed on …. The experiment can be described thus: cell-based or functional assay. The source holds these as a separate data set.
The target is the same in experiment [4]. Put plainly: cell-based or functional assay. This is another data set of the same source.
Experiment [5] addresses T6, human Notch1 NRR_Avi_His recombinant protein (human, UniProt P46531 1434-1737).
T6 construct: Secreted from CHO-PACE cells; cleaved at S1 into an N-terminal ~26 kDa half (LNR-A, B, C, HD1) and a C-terminal ~12 kDa half (HD2 and tag) that stay associated non-covalently; written here as one chain; also called recombinant human Notch1 NRR; human Notch1 NRR immunogen
T6 sequence: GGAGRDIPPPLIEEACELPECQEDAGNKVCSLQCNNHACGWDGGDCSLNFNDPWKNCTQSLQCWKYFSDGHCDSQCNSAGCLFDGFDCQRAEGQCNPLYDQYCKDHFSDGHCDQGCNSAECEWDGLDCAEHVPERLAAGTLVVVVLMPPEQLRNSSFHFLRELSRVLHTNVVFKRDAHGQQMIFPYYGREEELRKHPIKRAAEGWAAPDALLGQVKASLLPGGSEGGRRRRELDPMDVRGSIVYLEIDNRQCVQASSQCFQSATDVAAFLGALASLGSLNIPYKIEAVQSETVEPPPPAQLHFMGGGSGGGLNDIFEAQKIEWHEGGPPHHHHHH
The experiment can be described thus: SPR (Biacore T100), ratio of KD to that of rat 351.

In experiment [6] the target is T4, full-length human Notch1 expressed on …. Put plainly: cell-based ELISA, U-2 OS cells expressing full-length human Notch1. On the procedure: (§1) Supernatants from clones displaying positive binding to immunogens in recombinant Notch1 NRR based ELISAs described above were then screened for cell surface Notch1 binding in a cell-based ELISA. U-2 OS cells stably overexpressing human or mouse full length Notch1 protein on cell surface were plated at 50,000 cells/well in 96 well plates (white opaque, BD/VWR) the day before ELISA assay. On the day of the ELISA, culture media were removed from wells and serially diluted (1:3 in blocking buffer) antibody solutions or hybridoma culture supernatants were applied to the plate. Plates were incubated at room temperature for 2 hours before being washed with PBS-Mg/Ca. HRP-conjugated secondary antibody was then applied and incubated with cells for 1 hour as described above for recombinant protein ELISA. Plates were washed with PBS-Mg/Ca before being developed with Pico-Chemiluminescent developing kit (Thermal Scientific), and chemiluminescence measurements were performed per manufacturer's instructions. Data plotting and analyses were performed with Microsoft Excel and Graphpad-Prizm software.
On the technique in general: In an ELISA, binding on a coated surface is turned into a signal by an enzyme label.

Experiment [7] has as its target T5, full-length mouse Notch1 expressed on …. The experiment can be described thus: cell-based ELISA, U-2 OS cells expressing full-length mouse Notch1. On the procedure: as §1
Experiment [8] deals with T6, human Notch1 NRR_Avi_His recombinant …. Put plainly: SPR (Biacore T100), antibody captured by anti-human IgG-Fc, NRR_Avi_His as analyte, 1:1 Langmuir model. On the procedure:
The kinetic constants of the anti-Notch1 NRR interactions were determined by surface plasmon resonance (Biacore® T100, Biacore Inc., Piscataway, N.J.). Flow cells of a CM5 chip were immobilized with approximately 10,000 Resonance Unit (RU) of anti-human IgG-Fc (Biacore®) in 10 mM Glycine, pH 5.0 at 10 μl/min for 600 seconds. […] Association of four concentrations of human Notch1 NRR_Avi_His recombinant protein (from 3.7-100 nM) and a zero concentration (running buffer) at 100 μl/min were recorded for 3 minutes in TBS with 1 mM CaCl₂. Dissociation of the complexes was measured for 10 minutes. The surface of the chip was regenerated by injecting 3M MgCl₂ with 3 mM EGTA for 60 seconds at 10 μl/min. Curves obtained after subtraction of the reference and buffer signals were fitted to a 1:1 Langmuir binding model with Biacore® T100 Evaluation Software (Biacore®).
Background: SPR reads the build-up and loss of mass on a sensor chip optically.

The target of experiment [9] is T4, full-length human Notch1 expressed on …. The experiment can be described thus: competition ELISA on U-2 OS cells expressing full-length human Notch1; competitor 0.8 nM biotinylated rat 351. On the procedure:
(§2) In a similar manner as described for recombinant protein or cell based ELISAs, 96 well cell culture plates were either coated with Notch1 NRR-Avi_His protein (hi-bound co-Star plates), or seeded with full length Notch1 expressing U-2 OS cells (cell culture plate, Co-star), respectively.
(§3) After incubation for 2 hours, the plates were washed, as described above, and HRP-conjugated streptavidin (Southern Biotech) diluted 1:5000 in blocking buffer was applied. Incubation with streptavidin was allowed for 30 min before the plates were washed again and developed with TMB solution for 10 minutes. Developing reaction was stopped by adding 0.18M H₂SO₄ and absorbance at 450 nm was measured. Data plotting and analyses were performed with Microsoft Excel and Graphpad-Prizm software.

Experiment [10] shares this target. The experiment can be described thus: cell-based or functional assay. This is another data set of the same source.
Experiment [11] has the same target. The experiment can be described thus: cell-based or functional assay. The source holds these as a separate data set.
Experiment [12] concerns the target T5, full-length mouse Notch1 expressed on …. Put plainly: cell-based or functional assay. This is another data set of the same source.
The target in experiment [13] is T7, full-length human Notch3 expressed on U-2 OS cell surface (human, UniProt Q9UM47 40-2321).
T7 construct: whole, on cells; also called Notch3 U2-OS cells; NotchS U-2 OS cells
The experiment can be described thus: binding to Notch3 U-2 OS cells (N/B represents non-binding).

Experiment [14] has as its target T6, human Notch1 NRR_Avi_His recombinant …. Put plainly: competition ELISA on coated human Notch1 NRR_Avi_His; competitor 0.8 nM biotinylated rat 438. On the procedure: as §2, §3
For experiment [15], the target named is T4, full-length human Notch1 expressed on …. The experiment can be described thus: competition ELISA on U-2 OS cells expressing full-length human Notch1; competitor 0.8 nM biotinylated rat 438. On the procedure: as §2, §3

T5 sequence (Q01705 19-2531): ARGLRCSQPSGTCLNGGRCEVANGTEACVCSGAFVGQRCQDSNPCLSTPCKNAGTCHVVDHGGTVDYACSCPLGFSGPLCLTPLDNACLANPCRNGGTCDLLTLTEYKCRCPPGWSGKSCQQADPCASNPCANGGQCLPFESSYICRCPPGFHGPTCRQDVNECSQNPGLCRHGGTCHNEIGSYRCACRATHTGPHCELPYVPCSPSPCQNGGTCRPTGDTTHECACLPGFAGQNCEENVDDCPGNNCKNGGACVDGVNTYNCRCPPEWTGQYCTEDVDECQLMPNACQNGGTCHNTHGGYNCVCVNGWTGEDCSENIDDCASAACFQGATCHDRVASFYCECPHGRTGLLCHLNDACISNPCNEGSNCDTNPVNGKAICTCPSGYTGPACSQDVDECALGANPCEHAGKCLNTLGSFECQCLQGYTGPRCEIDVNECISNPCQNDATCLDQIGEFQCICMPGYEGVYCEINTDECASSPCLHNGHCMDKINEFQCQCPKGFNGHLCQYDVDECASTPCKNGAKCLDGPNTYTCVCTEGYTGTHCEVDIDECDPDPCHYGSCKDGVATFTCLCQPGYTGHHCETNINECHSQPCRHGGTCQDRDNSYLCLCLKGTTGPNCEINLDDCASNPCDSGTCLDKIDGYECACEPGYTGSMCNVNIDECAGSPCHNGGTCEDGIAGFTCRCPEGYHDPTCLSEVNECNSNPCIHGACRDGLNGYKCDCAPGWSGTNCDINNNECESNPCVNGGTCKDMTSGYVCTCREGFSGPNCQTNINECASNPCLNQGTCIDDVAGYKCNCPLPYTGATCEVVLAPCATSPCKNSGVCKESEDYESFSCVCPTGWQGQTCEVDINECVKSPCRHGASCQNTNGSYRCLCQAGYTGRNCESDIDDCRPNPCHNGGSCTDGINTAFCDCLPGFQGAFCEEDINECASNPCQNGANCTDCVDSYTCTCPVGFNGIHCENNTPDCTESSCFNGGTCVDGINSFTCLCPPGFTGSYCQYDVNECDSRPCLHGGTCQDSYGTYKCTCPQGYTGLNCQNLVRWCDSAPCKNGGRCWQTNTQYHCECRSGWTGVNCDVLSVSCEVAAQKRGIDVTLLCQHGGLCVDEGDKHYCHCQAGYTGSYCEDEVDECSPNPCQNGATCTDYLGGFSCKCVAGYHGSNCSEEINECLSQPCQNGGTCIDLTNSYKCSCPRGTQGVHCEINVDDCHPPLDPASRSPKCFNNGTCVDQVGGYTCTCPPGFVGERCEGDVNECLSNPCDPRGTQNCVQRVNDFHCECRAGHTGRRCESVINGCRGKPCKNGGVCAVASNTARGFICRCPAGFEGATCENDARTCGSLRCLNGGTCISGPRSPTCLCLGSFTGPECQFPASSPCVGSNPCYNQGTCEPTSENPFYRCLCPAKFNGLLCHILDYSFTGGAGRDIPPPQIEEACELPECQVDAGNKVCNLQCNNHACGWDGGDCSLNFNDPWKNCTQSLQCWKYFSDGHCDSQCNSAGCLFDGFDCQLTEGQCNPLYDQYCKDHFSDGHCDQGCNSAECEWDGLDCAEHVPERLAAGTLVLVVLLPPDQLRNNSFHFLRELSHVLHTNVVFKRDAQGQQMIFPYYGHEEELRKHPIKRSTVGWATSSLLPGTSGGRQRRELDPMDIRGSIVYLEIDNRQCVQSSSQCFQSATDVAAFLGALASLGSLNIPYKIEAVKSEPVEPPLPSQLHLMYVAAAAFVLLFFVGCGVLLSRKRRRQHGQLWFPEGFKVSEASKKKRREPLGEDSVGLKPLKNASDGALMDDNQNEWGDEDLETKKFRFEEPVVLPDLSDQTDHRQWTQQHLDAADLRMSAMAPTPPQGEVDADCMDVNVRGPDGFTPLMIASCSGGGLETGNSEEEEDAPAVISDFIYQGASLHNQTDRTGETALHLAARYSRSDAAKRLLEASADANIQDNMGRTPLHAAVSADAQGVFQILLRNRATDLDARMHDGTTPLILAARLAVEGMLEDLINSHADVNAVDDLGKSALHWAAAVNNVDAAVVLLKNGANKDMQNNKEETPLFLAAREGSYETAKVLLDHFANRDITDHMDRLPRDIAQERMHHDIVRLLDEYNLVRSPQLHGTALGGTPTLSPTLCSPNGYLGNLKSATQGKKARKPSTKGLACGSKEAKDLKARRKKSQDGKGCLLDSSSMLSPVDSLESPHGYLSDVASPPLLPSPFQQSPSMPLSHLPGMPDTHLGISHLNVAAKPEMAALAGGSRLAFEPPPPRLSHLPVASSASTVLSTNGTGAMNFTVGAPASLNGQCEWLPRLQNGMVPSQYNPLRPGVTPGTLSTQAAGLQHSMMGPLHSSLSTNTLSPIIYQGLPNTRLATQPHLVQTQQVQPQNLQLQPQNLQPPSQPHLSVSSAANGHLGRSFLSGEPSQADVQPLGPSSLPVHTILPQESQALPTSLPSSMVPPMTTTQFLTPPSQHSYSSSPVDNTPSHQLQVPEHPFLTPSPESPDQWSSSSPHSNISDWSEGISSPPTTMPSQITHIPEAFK

B1: humanized 351 VH1.0/VL1.1 (antibody, human IgG1, kappa, V domains shown)
VH: EVQLVESGGGLVQPGGSLRLSCAASGFTFSHYGMNWVRQAPGKGLEWVASISRSGSYIRYVDTVKGRFTISRDNAKNSLYLQMNSLRAEDTAVYYCAREGQFGDYFEYWGQGTLVTVSS
VL: DIQMTQSPSSLSASVGDRVTITCRASQKISTNLHWYQQKPGKAPKILIKYASQTISGVPSRFSGSGSGTDFTLTISSLQPEDFATYYCQQTNSWPLTFGGGTKVEIKR
notes: full chains (VH1.0)-hIgG1-3M and (VL1.1)-hkappa
Take B1: the binding result with Human Notch2 NRR-Fc, with Human Notch3 NRR-Fc and in the experiment with Mouse Notch3 NRR-Fc was “no binding” each time.

B2: parental rat 351 (antibody, V domains shown)
VH: EVQLVESGGGLVQPGRSLKVSCLASGFTFSHYGMNWIRQAPGKGLDWVASISRSGSYIRYVDTVKGRFTVSRDIAKNTLYLQMTSLRSEDTALYYCAREGQFGDYFEYWGQGVMVTVSS
VL: DIMLTQSPATLSVTPGERISLSCRASQKISTNLHWYQQKPNESPRILIKYASQTISGIPSRFSGSGSGTDFTLHINTVEPEDFSVYYCQQTNSWPLTFGSGTKLEIK
notes: Rat monoclonal IgG from a hybridoma
Consider B2, for which the “Neutralization activity (Human RGA), IC50” value in [1] was determined as 400 pM. Also, in [2], the “Neutralization activity (murine RGA), IC50” value stood at 300 pM. For the same molecule, in experiment [3], the “IC50, Notch1 signaling inhibition co-culture reporter assay” value stood at 190 pM and the “Maximal Inhibition (%), Notch1 signaling inhibition co-culture reporter assay” value is 87.5%. In addition, in experiment [4], the “Normalized Notch1^ICD level, CCD1076SK fibroblasts on DLL4, 0.001 µg/ml antibody” value is 0.826 relative to untreated; the “Normalized Notch1^ICD level, CCD1076SK fibroblasts on DLL4, 0.01 µg/ml antibody” value was 0.848 relative to untreated; the “Normalized Notch1^ICD level, CCD1076SK fibroblasts on DLL4, 0.1 µg/ml antibody” value is 0.554 relative to untreated; the “Normalized Notch1^ICD level, CCD1076SK fibroblasts on DLL4, 1 µg/ml antibody” value was 0.393 relative to untreated. The “Normalized Notch1^ICD level, CCD1076SK fibroblasts on DLL4, 10 µg/ml antibody” value in experiment [4] was 0.302 relative to untreated. Besides, the “Fold difference from rat 351” value in experiment [5] stood at 1 fold. For the same molecule, in [6], it took 100 pM to reach a half-maximal effect (EC50). For the same molecule, the EC50 in experiment [7] came to 70 pM. Also, in experiment [8], the Kd is 2330 pM and 2300 pM; the koff was 0.00102 s⁻¹; the kon was 439000 M⁻¹ s⁻¹. Further, in experiment [9], the EC50 amounted to 4430 pM.

B3: rat 438-mIgG1 (antibody, V domains shown)
VH: AVQLVESGGGLVQPGRSLKLSCTASGFTFSSFAMAWVRQAPTKGLEWVASISYGGADTYYRDSVKGRFTISRDNAKSSLYLQMDSLRSEDTSTYYCAKDLPYYGYTPFVMDAWGQGTSVTVSS
VL: DIMLTQSPPTLSVTPGETISLSCRASQRINTDLHWYQQKPNESPRVLIKFASQTISGVPSRFSGSGSGTDFTLNINRVEPEDFSVYYCQQSNSWPYTFGAGTKLELK
notes: also called r438-mIgG; Rat438-mlgG
As for B3, in [10], the “Firefly/Renilla Luminescence, human Notch1 reporter cells + 5 mM EDTA, 0.01 µg/mL antibody” value came to 338 Firefly/Renilla ratio; the “Firefly/Renilla Luminescence, human Notch1 reporter cells + 5 mM EDTA, 0.1 µg/mL antibody” value came to 246 Firefly/Renilla ratio; the “Firefly/Renilla Luminescence, human Notch1 reporter cells + 5 mM EDTA, 1 µg/mL antibody” value turned out to be 117 Firefly/Renilla ratio; the “Firefly/Renilla Luminescence, human Notch1 reporter cells + 5 mM EDTA, 10 µg/mL antibody” value was 54.3 Firefly/Renilla ratio. Moreover, in experiment [10], the “Firefly/Renilla Luminescence, human Notch1 reporter cells + 5 mM EDTA, 30 µg/mL antibody” value was 46.9 Firefly/Renilla ratio. Further, the “IC50, human Notch1 reporter gene co-culture assay (DLL4-HEK293)” value in [11] amounted to 680 pM. In addition, the “IC50, mouse Notch1 reporter gene co-culture assay (DLL4-HEK293)” value in [12] came out at 710 pM. Moreover, the binding result in [13] is listed as “no binding”. For the same molecule, the EC50 in experiment [14] was 1500 pM. It took 3600 pM to reach a half-maximal effect in experiment [15] (EC50).

The EC50 is the concentration that produces a half-maximal response. For orientation: Kd means the constant that tells how readily two partners part at equilibrium. What is called koff is the rate constant with which the complex falls apart. Usually kon stands for a measure of how fast the partners come together.
